# Columns and labels:
# [1] = test system: CC1(C)S[C@@H]2[C@H](NC(=O)[C@H](N)c3ccccc3)C(=O)N2[C@H]1C(=O)O; assay: purified protein; details: pH 6.4; 25.0 °C
# [2] = test system: O=C(Cc1cccs1)N[C@@H]1C(=O)N2C(C(=O)O)=C(/C=C/c3ccc([N+](=O)[O-])cc3[N+](=O)[O-])CS[C@H]12; assay: purified protein; details: pH 6.4; 25.0 °C
substance,measurement,setting,value
(Mycobacterium tuberculosis H37Rv),kcat,[1],2.1 s⁻¹
same,kcat/Km,[1],17000 M⁻¹ s⁻¹
same,Km,[2],560 µM
same,kcat,[2],220 s⁻¹
same,kcat/Km,[2],390000 M⁻¹ s⁻¹

# Source: article PMC8383266 (Biochemistry, 2021)
